Test results published in patent publication US20230279091A1 (published 2023).
Changes are numbered by the printed parent chain.

B1: recombinant human TNFβ (ligand, UniProt P01374 35-205, looked up)
chain: LPGVGLTPSAAQTARQHPKMHLAHSTLKPAAHLIGDPSKQNSLLWRANTDRAFLQDGFSLSNNSLLVPTSGIYFVYSQVVFSGKAYSPKATSSPLYLAHEVQLFSSQYPFHVPLLSSQKMVYPGLQEPWLHSMYHGAAFQLTQGDQLSTHTDGIPHLVLSPSTVFFGAFAL
B2: humanized scFv 16-22-H05-sc02 (STR, structural graft) (scFv)
scFv: MDIQMTQSPSSLSASVGDRVTIKCQASQSIFSGLAWYQQKPGKAPKLLIYGASKLASGVPSRFSGSGSGTEFTLTISGLQPADFATYYCQSYYYSSSSSDGSYAFGGGTKLTVLGGGGGSGGGGSGGGGSGGGGSEVQLVESGGGLVQPGGSLRLSCKASGIDFNNYGIGWVRQAPGKGLEWITYIYPGFAITNFANSVKGRFTISSDNSKNTVYLQMNSLRAEDTAVYYCARDPVYATSSGYFDLWGQGTLVTVSS
notes: also called 16-22-H5-sc02; 16-22-H04-sc02 [sic]
B3: humanized scFv 16-22-H05-sc04 (CDR/STR) (scFv)
scFv: B2 scFv with K23T
notes: also called 16-22-05-sc04

What was measured:
[1] = biological target: B2; test: competition ELISA: unlabeled TNFβ against biotinylated TNFα on coated scFv
Procedure: (§1) For this purpose, the scFvs were coated on a 96-well Maxisorp ELISA plate at a concentration of 1 pg/ml. […] To control precision of the response, the dose-response curves were analyzed in duplicate.

[2] = biological target: B3; test: as above
Procedure: as §1

[3] = biological target: T1, recombinant human TNFα (human, UniProt P01375 77-233); test: inhibition ELISA, blocking of biotinylated TNFα binding to coated TNFRI-Fc
T1 construct: also called tumor necrosis factor alpha; TNFαtrimer
From the text: For the first inhibition ELISA, the extracellular domain of TNFRI fused to the Fc region of human IgG (R&D Systems, Cat. No. 372-RI) was coated on a 96-well Maxisorp ELISA at a concentration of 0.5 pg/ml. […] All subsequent steps were identical for both assays.

[4] = biological target: T1, recombinant human TNFα; test: cell-based or functional assay

T1 sequence (P01375 77-233 limits assumed): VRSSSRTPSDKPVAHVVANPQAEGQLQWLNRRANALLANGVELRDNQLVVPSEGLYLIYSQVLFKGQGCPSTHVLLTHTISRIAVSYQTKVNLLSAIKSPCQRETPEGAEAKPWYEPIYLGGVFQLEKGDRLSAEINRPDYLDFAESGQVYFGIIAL

Binder | IC50 [1] [ng/mL] | IC50 [2] [ng/mL] | rel. IC50 (IC50 Infliximab/IC50 scFv, ng/mL) [3] [ratio] | rel. IC90 (IC90 Infliximab/IC90 scFv, ng/mL) [3] [ratio] | L929 assay, rel. IC50 [4] | L929 assay, rel. IC90 [4]
B1 | > 1.25 | > 1.25 |  |  |  | 
B2 |  |  | 3.5 | 2.4 | 13.1 ratio IC50 Infliximab (ng/ml)/IC50 scFv (ng/mL) | 12.6 ratio IC90 Infliximab (ng/ml)/IC90 scFv (ng/mL)
B3 |  |  | 2.8 | 2.1 | 14.6 ratio IC50 Infliximab (ng/ml)/IC50 scFv (ng/mL) | 13.1 ratio IC90 Infliximab (ng/ml)/IC90 scFv (ng/mL)
